Molecular target: GST coupled TRPM8 N terminal fragment (1~691) (UniProt Q7Z2W7)
Experiment: pull-down

UniProt Q7Z2W7, sequence (Q7Z2W7 1-691): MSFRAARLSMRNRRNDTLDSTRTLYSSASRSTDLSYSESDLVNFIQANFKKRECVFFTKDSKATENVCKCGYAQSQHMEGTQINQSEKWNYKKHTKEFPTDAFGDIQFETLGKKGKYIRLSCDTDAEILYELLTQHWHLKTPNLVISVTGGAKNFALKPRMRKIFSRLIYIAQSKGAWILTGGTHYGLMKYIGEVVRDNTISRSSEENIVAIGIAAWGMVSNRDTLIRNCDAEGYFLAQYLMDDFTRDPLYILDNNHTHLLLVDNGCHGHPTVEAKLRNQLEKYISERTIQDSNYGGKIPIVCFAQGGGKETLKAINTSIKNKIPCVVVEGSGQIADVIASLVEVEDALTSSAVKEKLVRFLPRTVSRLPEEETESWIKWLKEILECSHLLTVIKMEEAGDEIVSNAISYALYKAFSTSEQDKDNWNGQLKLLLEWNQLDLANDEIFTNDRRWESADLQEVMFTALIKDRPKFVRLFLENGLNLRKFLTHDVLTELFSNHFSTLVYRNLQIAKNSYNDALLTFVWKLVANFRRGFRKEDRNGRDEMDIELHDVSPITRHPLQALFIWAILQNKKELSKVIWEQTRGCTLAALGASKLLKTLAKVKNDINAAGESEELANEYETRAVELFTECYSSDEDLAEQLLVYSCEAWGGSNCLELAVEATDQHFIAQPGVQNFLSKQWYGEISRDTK

- fold Gαq bound relative to TRPM8 C terminal: 1.28 fold
Substance: Gαq (wild type) (from UniProt P50148 1-359) (natural protein)
